Measured values: US10925971B2, “Methods of treating PRLR positive breast cancer” (Regeneron Pharmaceuticals, Inc., priority 2016, dated 2021)

Columns and labels:
MCF7 (MCF7/ATCC) cells = assay: In vitro cell viability (cell kill) assay, nuclear counts; assay type: cell-based, human; conditions: MCF7 cells, approximately 3000 copies of PRLR per cell
Procedure, shortened: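 Anti-PRLR–DM1 ADCs (non-cleavable SMCC linker) or free DM1-SMe, 500 nM to 5 pM for 3 days on parental or hPRLR-overexpressing lines. HEK293: CCK8 OD450; MCF7: Hoechst nuclear counts by imaging.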

TM00107 PDX tumors = assay: TM00107 patient derived xenograft (PDX) breast cancer model, tumor volume; assay type: in vivo, NOD SCID gamma (NSG) mice
Method: Efficacy of H1H6958N2-DM1 was also assessed in a patient derived xenograft (PDX) model of breast cancer that may better represent the response in patients. NOD SCID gamma (NSG) mice bearing tumor fragments of the TM00107 PDX breast cancer tumor were sourced from The Jackson Laboratories. The TM00107 PDX model was derived from an ER+/−/PR−/HER2− metastatic breast adenocarcinoma. PRLR expression was confirmed by microarray analysis and immunohistochemistry on tumor sample slides provided by The Jackson Laboratory (data not shown). When tumors were an average volume of ˜400-600 mm^3 (21 days post implantation), mice were randomized into treatment groups (n=7 mice/group) and were administered H1H6958N2-DM1, control ADC, or vehicle control by intravenous injection once weekly for a total of 4 weeks. A separate treatment group was administered paclitaxel by intravenous injection every 4 days for a total of 4 doses.

T47DvII tumors = assay: Phospho-histone-H3 (pHH3) IHC in treated tumors, mitotic arrest; assay type: in vivo, mice
Method: In order to validate the activity of DM1 on microtubule activity, the induction of mitotic arrest following treatment of T47DvII tumors with H1H6958N2-DM1 in vivo was assessed by phospho-histone-H3 (pHH3) IHC. Mice were implanted with T47DvII cells and tumors were grown for 15 days where mice were randomized based on tumor volume and dosed intravenously with either vehicle, H1H6958N2-DM1 at 5 or 15 mg/kg or Control ADC at 15 mg/kg (N=4-5). At 24, 48 or 72 hours post-treatment, mice were euthanized and tumors processed as FFPE samples for IHC analysis. Tumor sections were then stained with anti-phospho Histone H3 (pHH3) antibody (clone: Ser10, Cell Signaling Technology #9701) as a measure of mitotic cells. Images were scanned on an Aperio XT Scan scope at 40× (Leica Systems). PHH3 positive nuclear signals were imaged and quantified with the Halo CytoNuclear Count algorithm (Halo, Indica Labs). The percent of positive cells in each tumor was quantified for each group and an average calculated for each treatment condition.

T47D cells = assay: In vitro cell viability (cell kill) assay, CCK8; assay type: cell-based, human; conditions: T47D cells (PRLR 12× above background), 3 days; read-out: IC50, growth inhibition / cell viability
Procedure, shortened: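 T47D cells grown overnight, then exposed for 3 days to anti-PRLR-DM1 ADCs (SMCC non-cleavable linker) or DM1-SMe at 500 nM to 5 pM.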

HEK293 (293) cells = assay: In vitro cell viability (cell kill) assay, CCK8; assay type: cell-based, human
Procedure, shortened: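 Viability of hPRLR-expressing 293, PC3 and MCF7 cells is measured after 3 days with non-cleavable-linker DM1 ADCs (final 500 nM–5 pM). IC50 comes from a four-parameter logistic fit of background-corrected percent-of-untreated values over 10 points.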

PC3 cells = assay: In vitro cell viability (cell kill) assay, CCK8; assay type: cell-based, human; conditions: Table 18
Procedure, shortened: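 hPRLR stable lines; anti-PRLR-DM1 ADC (SMCC) or DM1-SMe, 10-pt 500 nM–5 pM, 3 d. CCK8 OD450 final 1-3 h (293/PC3); Hoechst nuclear count imaging (MCF7).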

B1: H1H6958N2-DM1: anti-PRLR antibody H1H6958N2 conjugated to the maytansinoid DM1 through an SMCC linker (conjugate)
VH: QVQLVESGGGVVQPGRSLRLSCGASGFTFRNYGMQWVRQGPGKGLEWVTLISFDGNDKYYADSVKGRFTISRDNSKNTLFLQMNSLRTEDTAVYYCARGGDFDYWGQGTLVTVSS
VL: DIQMTQSPSSLSASVGDRVTITCRASQDIRKDLGWYQQKPGKAPKRLIYAASSLHSGVPSRFSGSGSGTEFTLTISSLQPEDFATYYCLQHNSYPMYTFGQGTKLEIK
MCF7 cell killing in vitro (MCF7 (MCF7/ATCC) cells): not inhibited | average tumor volume (TM00107 PDX tumors; 10 mg/kg once weekly, day 30, compared to vehicle): no significant difference in average tumor volume | average tumor volumes (TM00107 PDX tumors; 20 mg/kg once weekly, day 30, compared to 20 mg/kg control ADC): moderate but significant (p<0.01) decrease | pHH3 immunoreactivity in tumors (T47DvII tumors; 5 mg/kg intravenously, relative to vehicle): significant increase relative to vehicle treated tumors | pHH3 levels in tumors (T47DvII tumors; 15 mg/kg, data not shown): further increase in pHH3 levels | time of peak pHH3 levels post treatment (T47DvII tumors; sampled at 24, 48 or 72 hours): 48 hours | IC50 (T47D cells): 1.3 nM | % Kill (HEK293 (293) cells; 293, Table 11, 3 days): 98% | IC50 (HEK293 (293) cells; 293, Table 11, 3 days): 75 nM | % Kill (HEK293 (293) cells; HEK293, Table 13, + 15 nM PRL): 86% | IC50 (HEK293 (293) cells; HEK293, Table 13, + 15 nM PRL): 110 nM | % Kill (PC3 cells): 81% | IC50 (PC3 cells): 110 nM
